{"source": "IntAct's records for PubMed 31712417"}
{"target": "if4e_human EIF4E (UniProt P06730)", "sequence (P06730 whole entry)": "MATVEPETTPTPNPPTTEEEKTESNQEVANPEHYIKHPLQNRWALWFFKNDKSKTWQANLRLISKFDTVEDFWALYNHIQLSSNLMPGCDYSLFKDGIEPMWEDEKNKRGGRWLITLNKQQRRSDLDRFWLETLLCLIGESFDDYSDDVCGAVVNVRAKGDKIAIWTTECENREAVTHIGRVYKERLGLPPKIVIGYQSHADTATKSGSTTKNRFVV"}
{"substance": "Genome polyprotein (Potato virus Y (strain N)), P18247 D1954A;D1955A;E1957A", "effect of a mutation on the interaction": "decreasing interaction"}
{"substance": "Genome polyprotein (Potato virus Y (strain N)), P18247 D1935K", "effect of a mutation on the interaction": "with no effect"}
{"substance": "Genome polyprotein (Potato virus Y (strain N)), P18247 E1941K;E1945K", "effect of a mutation on the interaction": "with no effect"}
{"substance": "Genome polyprotein (Potato virus Y (strain N)), P18247 M1958A;Q1959A", "effect of a mutation on the interaction": "decreasing interaction"}
{"substance": "Genome polyprotein (Potato virus Y (strain N)), P18247 V1951G;E1952K", "effect of a mutation on the interaction": "decreasing interaction"}
{"substance": "Genome polyprotein (Potato virus Y (strain N)), P18247 L1961G", "effect of a mutation on the interaction": "decreasing interaction"}
{"substance": "Genome polyprotein (Potato virus Y (strain N)), P18247 D1954A;D1955A;Q1959A", "effect of a mutation on the interaction": "decreasing interaction"}
{"substance": "Genome polyprotein (Potato virus Y (strain N)), P18247 E1929K;E1930K", "effect of a mutation on the interaction": "with no effect"}
